# Source: US20210060068A1 (published 2021)
# Numbering of substitutions follows the chain as printed.
# T1: wild-type mouse IL-2Rβ (UniProt P16297 27-240)
# T1 chain: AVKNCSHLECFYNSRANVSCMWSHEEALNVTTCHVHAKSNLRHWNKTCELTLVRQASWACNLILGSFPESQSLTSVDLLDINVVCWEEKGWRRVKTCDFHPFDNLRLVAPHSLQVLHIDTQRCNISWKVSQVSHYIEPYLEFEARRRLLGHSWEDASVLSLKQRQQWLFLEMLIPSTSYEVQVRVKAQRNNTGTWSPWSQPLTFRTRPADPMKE
# B1: wild-type mouse IL-2 (ligand)
# chain: APTSSSTSSSTAEAQQQQQQQQQQQQHLEQLLMDLQELLSRMENYRNLKLPRMLTFKFYLPKQATELKDLQCLEDELGPLRHVLDLTQSKSFQLEDAENFISNIRVTVVKLKGSDNTFECQFDDESATVVDFLRRWIAFCQSIISTSPQ
# B2: orthoIL-2Rβ (receptor)
# chain: T1 chain with H134D, Y135F
# Key:
# Assay in all cases: SPR
# [1] = target: T1, wild-type mouse IL-2Rβ
# [2] = target: 162
# [3] = target: 182
# [4] = target: 146
# [5] = target: 151
# [6] = target: 149
# [7] = target: 148
# [8] = target: 165
# [9] = target: 177
# [10] = target: 181
# [11] = target: 176
# [12] = target: 157
# [13] = target: 150
# [14] = target: 172
# [15] = target: 160
# [16] = target: 161
# [17] = target: 145
# [18] = target: 170
# [19] = target: 163
# [20] = target: 147
# [21] = target: 180
# [22] = target: 175
binder,measurement,setting,value
B1,Kd,[1],4000 nM
B2,Kd,[2],3000 nM
same,Kd,[3],3000 nM
same,Kd,[4],600 nM
same,Kd,[5],2000 nM
same,Kd,[6],4000 nM
same,Kd,[7],4000 nM
same,Kd,[8],1000 nM
same,Kd,[9],3000 nM
same,Kd,[10],5000 nM
same,Kd,[11],1000 nM
same,Kd,[12],4000 nM
same,Kd,[13],3000 nM
same,Kd,[14],2000 nM
same,Kd,[15],1000 nM
same,Kd,[16],3000 nM
same,Kd,[17],4000 nM
same,Kd,[18],2000 nM
same,Kd,[19],1000 nM
same,Kd,[20],8000 nM
same,Kd,[21],6000 nM
same,Kd,[22],4000 nM
